This series has as its target T1, VqsMt (truncated VqsM) (Pseudomonas aeruginosa PAO1) (UniProt Q9I1P2).
T1 sequence: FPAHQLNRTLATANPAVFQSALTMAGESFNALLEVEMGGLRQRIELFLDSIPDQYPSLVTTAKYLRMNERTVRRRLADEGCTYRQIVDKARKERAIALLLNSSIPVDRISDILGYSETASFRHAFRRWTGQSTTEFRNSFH
Description: EMSA. Particulars: 20 mM Tris-HCl pH 7.4, 50 mM KCl, 5 mM MgCl2, 10% glycerol, 3 ug/ml sheared salmon sperm DNA; room temperature 20 min; DNA 40-50 nM (footprint DNase I at 25 C). Background: Mobility shift assays separate free from complexed probe on a gel.

“AAAAAGCCTCCGTCATTCCTCATTGCAGTAAGCCCTGATCGATAAAATGCATCACAGCAGAATTGGCCCGGGGTATGACGCTGTCAAGCGCGCAGCCTTGCCGATACGGCAAAATCATGGCAACCCTATCTGTTATGCCAGCACCGTTCAGGACGCAGCCTTCAGCCATCGAGCATCCCCCTCCCTATGACAACGTTCGACCACCTGGGCCGCTTTACCGCAAGCGATACTGTGCGGTTGTGACAATTCCATGAAACGC (double strand) [rhlR promoter]”: the binding result is reported as “no binding”.

Regarding “AAAAGGCGGCATCCCTACCCTGATACTCCTGGGCCCTCTCAGTCGGAGGACATACCAGCACACACATGAGGGGGAAGACTAAAGGAGGATGAACGGCAGGCAACCTGCCAGATCTGGTAGGGCGCGCCGACCGGCGCGCCCTGCGCTTCAGATGAGACCCAGCGCCGCGGCGTAGGCGGCAGCCAGCGTCTTGTTCGGCGCGTCGAACTTCTTCTGGATGTTC (double strand) [rhlI promoter]”, the binding result is reported as “no binding”.

With “TAAAGATGGACGCTGGTTTGCGCAGCCCATGCACTGTCCGCCGCTGTCGCACCGATCGTCGTCAGGATCGATAACGCCAGTGCACAAACTTTTTTCATTGGATTTCCTTTCCGAAACGAAACAAGTTGGATTTTGCACCTACCAGAACTGGTAGTTCTGACCTGTGGCTATCTTCGAAGGCATCGATATTATGCACATTGGAACTCTTCATGACATAACGCCGAGTGACT (double strand) [vqsR promoter]”, the binding entry is “no binding”.

Source of the values: article PMC4176358.
